Data taken from patent US20240010750A1 (Bayer, published 2024).

Experiments:
human alpha2-Antiplasmin = molecular target: T1, human alpha2-Antiplasmin (human, UniProt P08697 40-491); assay: ELISA, coated antigen, 2nd exp.
T1 construct: Bought (antibodies online, ABIN2544306); also called human A2AP; a2AP
T1 sequence: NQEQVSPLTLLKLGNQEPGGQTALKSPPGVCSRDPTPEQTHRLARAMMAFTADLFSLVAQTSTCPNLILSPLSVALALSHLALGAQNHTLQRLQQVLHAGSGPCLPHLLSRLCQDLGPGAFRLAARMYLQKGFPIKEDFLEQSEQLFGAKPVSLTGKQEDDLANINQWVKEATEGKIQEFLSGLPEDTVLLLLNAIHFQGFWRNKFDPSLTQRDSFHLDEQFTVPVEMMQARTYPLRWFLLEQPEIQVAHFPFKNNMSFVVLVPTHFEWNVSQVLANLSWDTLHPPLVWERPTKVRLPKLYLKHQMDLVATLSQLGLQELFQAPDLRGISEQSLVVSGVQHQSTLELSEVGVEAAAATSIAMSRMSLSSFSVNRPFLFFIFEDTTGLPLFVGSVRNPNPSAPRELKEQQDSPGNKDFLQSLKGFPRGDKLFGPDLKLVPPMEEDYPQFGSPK
Protocol: (§1) A standard ELISA format was used for analyzing the binding affinity of Fabs of this invention to human and rabbit alpha-2-Antiplasmin, respectively. Antigens were coated to black 384 well Maxisorp microtiter plates (Nunc; catalogue number 460518), diluted to a concentration of 1 μg/ml in 1× Coating Buffer (Candor Bioscience; catalogue number 121125). Plates were incubated overnight at 4° C. After overnight incubation, plates were washed 2× with 50 μl/well using PBS+0.05% Tween 20. Following this, 50 μl/well of blocking buffer (Smart Block; Candor Bioscience; catalogue number 113500) was added and the plates were incubated for 1 hour at room temperature. Afterwards, plates were washed for 3× using […] PBS+0.05% Tween 20 buffer. Fabs of this invention were added at different concentrations in a final volume of 30 μl/well. Plates were incubated for 1 hour at room temperature. Following this incubation step, plates were washed for 3× using 50 μl/well of a PBS+0.05% Tween 20 buffer. For the detection of bound Fabs and full-length antibodies, the anti-Human Lambda Light Chains (Bound and Free)—Peroxidase antibody (Sigma; catalogue number A5175) was diluted by the factor of 1:10.000 in 10% Blocking Buffer. […]
(§2) For measurement, the Infinite f500 reader (Tecan) was used. Measurement mode: Fluorescence; Top reading; Ex 535 nm; Em 590 nm. […]

[1] = molecular target: T2, rabbit alpha2-Antiplasmin (rabbit (Oryctolagus cuniculus)); assay: ELISA, coated antigen, 2nd exp.
T2 construct: Made in house in HEK293 cells, purified by Ni-IMAC and SEC (a His tag is implied but not described); also called rabbit A2AP; Oryctolagus cuniculus A2AP
T2 chain: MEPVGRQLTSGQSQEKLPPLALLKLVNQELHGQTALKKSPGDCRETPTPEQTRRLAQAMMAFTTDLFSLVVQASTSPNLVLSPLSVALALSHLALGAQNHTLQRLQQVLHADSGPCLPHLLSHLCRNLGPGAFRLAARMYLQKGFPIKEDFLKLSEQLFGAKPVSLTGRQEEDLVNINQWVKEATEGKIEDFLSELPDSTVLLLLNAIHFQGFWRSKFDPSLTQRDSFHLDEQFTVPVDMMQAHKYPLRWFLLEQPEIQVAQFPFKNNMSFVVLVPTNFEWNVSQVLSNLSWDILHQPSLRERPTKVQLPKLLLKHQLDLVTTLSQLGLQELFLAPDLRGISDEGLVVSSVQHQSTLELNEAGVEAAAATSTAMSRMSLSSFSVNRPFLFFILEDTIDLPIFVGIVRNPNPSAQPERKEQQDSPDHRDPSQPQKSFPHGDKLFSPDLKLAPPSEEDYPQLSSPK
Protocol: as §1, §2

[2] = molecular target: T3, cynomolgus alpha2-Antiplasmin (cynomolgus (Macaca fascicularis), UniProt P08697 28-491 (human entry)); assay: ELISA, coated antigen, 1st exp.
T3 construct: Made in house in the same way as the rabbit protein; also called cynomolgus A2AP; Macaca fascicularis A2AP
T3 chain: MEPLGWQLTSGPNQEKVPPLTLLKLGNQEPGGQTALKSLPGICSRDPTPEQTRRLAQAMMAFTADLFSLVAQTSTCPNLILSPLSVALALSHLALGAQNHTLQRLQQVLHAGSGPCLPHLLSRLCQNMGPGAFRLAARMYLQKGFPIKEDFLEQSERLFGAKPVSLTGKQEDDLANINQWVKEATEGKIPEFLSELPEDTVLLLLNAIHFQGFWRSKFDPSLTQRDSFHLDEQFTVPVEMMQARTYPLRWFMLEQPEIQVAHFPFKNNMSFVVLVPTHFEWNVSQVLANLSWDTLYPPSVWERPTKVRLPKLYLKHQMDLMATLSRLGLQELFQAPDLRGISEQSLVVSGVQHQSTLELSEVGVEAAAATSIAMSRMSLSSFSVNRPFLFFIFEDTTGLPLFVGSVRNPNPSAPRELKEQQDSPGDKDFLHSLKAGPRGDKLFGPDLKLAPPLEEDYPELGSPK

[3] = molecular target: T4, A2AP peptides with the consensus motif SRMSLSS (human); assay: PEPperCHIP peptide microarray, antibody at 1 µg/ml
T4 construct: Consensus motif shared by the reacting peptides of the PEPperCHIP arrays (linear 15-mers; cyclic 7-, 10- and 13-mers closed by a thioether)
T4 peptide: SRMSLSS
Protocol: (§3) Antibodies were incubated on the Microarray in concentrations of 1 μg/ml, 10 μg/ml and 100 μg/ml in incubation buffer. Incubation time was 16 h at 4° C. and shaking at 140 rpm.
(§4) As secondary antibody the goat anti-human IgG (Fc) DyLight680 was used at a dilution of 1:5000. This detection antibody was incubated on the Microarray at 45 min staining in incubation buffer at room temperature.
(§5) Microarray image analysis was done with PepSlide® Analyzer. A software algorithm was used to break down fluorescence intensities of each spot into raw, foreground and background signal, and calculated averaged median foreground intensities and spot-to-spot deviations of spot duplicates. Based on averaged median foreground intensities, an intensity map was generated and interactions in the peptide map highlighted by an intensity color code with red for high and white for low spot intensities. Averaged spot intensities of the assays were plotted with the antibody samples against the antigen sequence from the N- to the C-terminus to visualize overall spot intensities and signal-to-noise ratios. The intensity plots were correlated with peptide and intensity maps as well as with visual inspection of the microarray scans to identify the epitopes of the tested antibodies.

[4] = molecular target: T4, A2AP peptides with the consensus motif …; assay: PEPperCHIP peptide microarray, antibody at 10 µg/ml
Protocol: as §3, §4, §5

- EC50 (human alpha2-Antiplasmin): 100 nM
- EC50 [1]: 6.07 nM
- EC50 [2]: 90 nM
- signal-to-noise-ratio at 1 µg/ml [3]: 659
- signal-to-noise-ratio at 10 µg/ml [4]: 2260
B1: TPP-12387 hIgG1 (antibody, V domains shown)
VH: EVQLLESGGGLVQPGGSLRLSCAASGFTFDDYAMSWVRQAPGKGLEWVSAIGTGGGTYYADSVKGRFTISRDNSKNTLYLQMNSLRAEDTAVYYCAREYYDSSGYYHLDYWGQGTLVTVSS
VL: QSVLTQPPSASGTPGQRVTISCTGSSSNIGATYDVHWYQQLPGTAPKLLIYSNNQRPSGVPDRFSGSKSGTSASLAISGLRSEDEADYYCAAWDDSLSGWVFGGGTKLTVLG
notes: Fully human IgG1 lambda from the BioInvent n-CoDeR Fab lambda library; parental lead antibody
